Reference: patent US20220119513A1 (ZOETIS SERVICES, published 2022)

T1: TGFβ3 (R&D Systems) (Homo sapiens (Human), UniProt P10600 301-412, Active TGFβ3 is a disulfide-linked homodimer of this chain; one copy is given.)
T1 construct: also called TGFB3
T1 sequence: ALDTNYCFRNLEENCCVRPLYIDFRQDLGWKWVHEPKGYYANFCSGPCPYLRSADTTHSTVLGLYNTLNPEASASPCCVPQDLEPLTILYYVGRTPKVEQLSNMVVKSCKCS


Columns and labels:
TGFβ3 (R&D Systems) = biological target: T1, TGFβ3 (R&D Systems); assay: SPR
TGFβ1 (R&D Systems) [1] = biological target: T2, TGFβ1 (R&D Systems); assay: single point SPR
T2 construct: also called TGFB1

TGFβ1 (R&D Systems) [2] = biological target: T2, TGFβ1 (R&D Systems); assay: SPR full titration
TGFβ1 (R&D Systems) [3] = biological target: T2, TGFβ1 (R&D Systems); assay: cell-based or functional assay

T2 sequence (P01137 279-390): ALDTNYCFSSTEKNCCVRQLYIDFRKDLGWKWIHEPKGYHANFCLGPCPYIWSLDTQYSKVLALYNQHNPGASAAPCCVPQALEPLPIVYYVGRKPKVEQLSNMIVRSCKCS

binding result (TGFβ3 (R&D Systems))	Kd (TGFβ1 (R&D Systems) [1])	Kd (TGFβ1 (R&D Systems) [2])	CMVIC pSmad-3, IC50 (TGFβ1 (R&D Systems) [3])	Binder
no binding				felHclb_heterochimera-1 (antibody, V domains shown, hetero-pairing) VH: QVLLVQSGAEVRRPGASVKIFCKASGYIFITYYMHWLRQAPAQGFEWMGSIFPASGSTSYAQKFQGRLTLTADTSTDTAYMELSSLRSADTAVYYCARGDGNYALDAMDYWGHGTIVTVSS VL: DIVMTQTPPSLSVSPRETASISCRASESVDSYGNSFMHWYLQKPGQSPQLLIYLASNLESGVSDRFSGSGSGTDFTLRISRVEANDTGVYYCQQNNEDPLTFGQ
no binding				felHclb_heterochimera-5 (antibody, V domains shown, hetero-pairing) VH: QVLLVQSGAEVRKPGASVKIFCKASGYTFITYYMHWLRQAPEQGLEWMGRIFPASGSTSYAQKFQGRLTLTADTSTNTAYMELSSLRSADTAMYYCARGDGNYALDAMDYWGQGALVTVSS VL: DIVMTQTPPSLSVSPRETASISCRASESVDSYGNSFMHWYLQKPGQSPQLLIYLASNLESGVSDRFSGSGSGTDFTLRISRVEANDTGVYYCQQNNEDPLTFGQ
	5640 pM	80.9 pM	8.95 nM	Can-SL501-VH3 Q110N / Can-SL501-VL2 (antibody, V domains shown) VH: EVQLVESGGDLVKPGGSLRLSCVASGFTFSSYGMHWVRQAPGKELEWVAVISYDGSIKYYADAVKGRFTISRDNAKNTLYLQMNSLRAEDTAVYYCARTGEYSGYDTDPNYSWGQGTTVTVSS VL: EIVMTQSPGSLAGSAGESVSINCRASQGIGDDLGWYQQKPGERPKLLIYGTSTLQSGVPARFSSSGSGTDFTLTINNLQAEDVGDYYCLQDSNYPLTFGAGTK
	8010 pM	50.3 pM	4.83 nM	Can-SL501-VH3 Q110D / Can-SL501-VL2 (antibody, V domains shown) VH: EVQLVESGGDLVKPGGSLRLSCVASGFTFSSYGMHWVRQAPGKELEWVAVISYDGSIKYYADAVKGRFTISRDNAKNTLYLQMNSLRAEDTAVYYCARTGEYSGYDTDPDYSWGQGTTVTVSS VL: EIVMTQSPGSLAGSAGESVSINCRASQGIGDDLGWYQQKPGERPKLLIYGTSTLQSGVPARFSSSGSGTDFTLTINNLQAEDVGDYYCLQDSNYPLTFGAGTK
	487 pM	15.3 pM	5.03 nM	Can-SL501-VH3 S112E / Can-SL501-VL2 (antibody, V domains shown) VH: EVQLVESGGDLVKPGGSLRLSCVASGFTFSSYGMHWVRQAPGKELEWVAVISYDGSIKYYADAVKGRFTISRDNAKNTLYLQMNSLRAEDTAVYYCARTGEYSGYDTDPQYEWGQGTTVTVSS VL: EIVMTQSPGSLAGSAGESVSINCRASQGIGDDLGWYQQKPGERPKLLIYGTSTLQSGVPARFSSSGSGTDFTLTINNLQAEDVGDYYCLQDSNYPLTFGAGTK
	5110 pM	111 pM	30.5 nM	Can-SL501-VH3 Q110K / Can-SL501-VL2 (antibody, V domains shown) VH: EVQLVESGGDLVKPGGSLRLSCVASGFTFSSYGMHWVRQAPGKELEWVAVISYDGSIKYYADAVKGRFTISRDNAKNTLYLQMNSLRAEDTAVYYCARTGEYSGYDTDPKYSWGQGTTVTVSS VL: EIVMTQSPGSLAGSAGESVSINCRASQGIGDDLGWYQQKPGERPKLLIYGTSTLQSGVPARFSSSGSGTDFTLTINNLQAEDVGDYYCLQDSNYPLTFGAGTK
	457 pM	23.5 pM	19.6 nM	Can-SL501-VH3 Y111T / Can-SL501-VL2 (antibody, V domains shown) VH: EVQLVESGGDLVKPGGSLRLSCVASGFTFSSYGMHWVRQAPGKELEWVAVISYDGSIKYYADAVKGRFTISRDNAKNTLYLQMNSLRAEDTAVYYCARTGEYSGYDTDPQTSWGQGTTVTVSS VL: EIVMTQSPGSLAGSAGESVSINCRASQGIGDDLGWYQQKPGERPKLLIYGTSTLQSGVPARFSSSGSGTDFTLTINNLQAEDVGDYYCLQDSNYPLTFGAGTK
	8040 pM	65 pM	43.3 nM	Can-SL501-VH3 Y111F / Can-SL501-VL2 (antibody, V domains shown) VH: EVQLVESGGDLVKPGGSLRLSCVASGFTFSSYGMHWVRQAPGKELEWVAVISYDGSIKYYADAVKGRFTISRDNAKNTLYLQMNSLRAEDTAVYYCARTGEYSGYDTDPQFSWGQGTTVTVSS VL: EIVMTQSPGSLAGSAGESVSINCRASQGIGDDLGWYQQKPGERPKLLIYGTSTLQSGVPARFSSSGSGTDFTLTINNLQAEDVGDYYCLQDSNYPLTFGAGTK
	13500 pM	65.7 pM	6.65 nM	Can-SL501-VH3 Q110E / Can-SL501-VL2 (antibody, V domains shown) VH: EVQLVESGGDLVKPGGSLRLSCVASGFTFSSYGMHWVRQAPGKELEWVAVISYDGSIKYYADAVKGRFTISRDNAKNTLYLQMNSLRAEDTAVYYCARTGEYSGYDTDPEYSWGQGTTVTVSS VL: EIVMTQSPGSLAGSAGESVSINCRASQGIGDDLGWYQQKPGERPKLLIYGTSTLQSGVPARFSSSGSGTDFTLTINNLQAEDVGDYYCLQDSNYPLTFGAGTK
	4980 pM	23.8 pM	46.9 nM	Can-SL501-VH3 Y111E / Can-SL501-VL2 (antibody, V domains shown) VH: EVQLVESGGDLVKPGGSLRLSCVASGFTFSSYGMHWVRQAPGKELEWVAVISYDGSIKYYADAVKGRFTISRDNAKNTLYLQMNSLRAEDTAVYYCARTGEYSGYDTDPQESWGQGTTVTVSS VL: EIVMTQSPGSLAGSAGESVSINCRASQGIGDDLGWYQQKPGERPKLLIYGTSTLQSGVPARFSSSGSGTDFTLTINNLQAEDVGDYYCLQDSNYPLTFGAGTK
	4800 pM	9.09 pM	5.02 nM	Can-SL501-VH3 S112Q / Can-SL501-VL2 (antibody, V domains shown) VH: EVQLVESGGDLVKPGGSLRLSCVASGFTFSSYGMHWVRQAPGKELEWVAVISYDGSIKYYADAVKGRFTISRDNAKNTLYLQMNSLRAEDTAVYYCARTGEYSGYDTDPQYQWGQGTTVTVSS VL: EIVMTQSPGSLAGSAGESVSINCRASQGIGDDLGWYQQKPGERPKLLIYGTSTLQSGVPARFSSSGSGTDFTLTINNLQAEDVGDYYCLQDSNYPLTFGAGTK
	7000 pM	19.6 pM	8.78 nM	Can-SL501-VH3 S112D / Can-SL501-VL2 (antibody, V domains shown) VH: EVQLVESGGDLVKPGGSLRLSCVASGFTFSSYGMHWVRQAPGKELEWVAVISYDGSIKYYADAVKGRFTISRDNAKNTLYLQMNSLRAEDTAVYYCARTGEYSGYDTDPQYDWGQGTTVTVSS VL: EIVMTQSPGSLAGSAGESVSINCRASQGIGDDLGWYQQKPGERPKLLIYGTSTLQSGVPARFSSSGSGTDFTLTINNLQAEDVGDYYCLQDSNYPLTFGAGTK
	562 pM	30.8 pM	50.2 nM	Can-SL501-VH3 Y111I / Can-SL501-VL2 (antibody, V domains shown) VH: EVQLVESGGDLVKPGGSLRLSCVASGFTFSSYGMHWVRQAPGKELEWVAVISYDGSIKYYADAVKGRFTISRDNAKNTLYLQMNSLRAEDTAVYYCARTGEYSGYDTDPQISWGQGTTVTVSS VL: EIVMTQSPGSLAGSAGESVSINCRASQGIGDDLGWYQQKPGERPKLLIYGTSTLQSGVPARFSSSGSGTDFTLTINNLQAEDVGDYYCLQDSNYPLTFGAGTK
no binding				felHclb_heterochimera-14 (antibody, V domains shown, hetero-pairing; also called felHclbH1-1x/mHclbVL) VH: QVLLVQSGAEVRTPGASVKIFCKASGYIFITYYMHWVRQSPAQGLEWMGQIFPASGSTNYNEMFEGRLTLTADTSTNTAYMELSSLRSADTAMYYCARGDGNYALDAMDYWGQGTSVTVSS VL: DIVLTQTPASLAVSLGQRATISCRASESVDSYGNSFMHWYQQKSGQPPKLLIYLASNLESGVPARFSGSGSRTDFTLTIDPVEADDAATYYCQQNNEDPLTFGAGTK
no binding				felHclb_heterochimera-15 (antibody, V domains shown, hetero-pairing; also called felHclbH618s/mHclbVL) VH: QVLLVQSGAEVRKPGASVKIFCKASGYTFITYYMHWLRQAPEQGLEWMGRIFPASGSTSYAQKFQGRLTLTADTSTNTAYMELSSLRSADTAMYYCARGDGNYALDAMDYWGQGALVTVSS VL: DIVLTQTPASLAVSLGQRATISCRASESVDSYGNSFMHWYQQKSGQPPKLLIYLASNLESGVPARFSGSGSRTDFTLTIDPVEADDAATYYCQQNNEDPLTFGAGTK
no binding				felHclb_heterochimera-4 (antibody, V domains shown, hetero-pairing) VH: QVLLVQSGAEVRTPGASVKIFCKASGYIFITYYMHWVRQSPAQGLEWMGQIFPASGSTNYNEMFEGRLTLTADTSTNTAYMELSSLRSADTAMYYCARGDGNYALDAMDYWGQGTSVTVSS VL: DIVMTQTPPSLSVSPRETASISCRASESVDSYGNSFMHWYLQKPGQSPQLLIYLASNLESGVSDRFSGSGSGTDFTLRISRVEANDTGVYYCQQNNEDPLTFGQ
no binding				felHclb_heterochimera-2 (antibody, V domains shown, hetero-pairing) VH: QVLLVQSGAEVRTPGASVKIFCKASGYIFITYYMHWVRQSPAQGLEWMGSIFPASGSTSYAQKFQGRLTLTADTSTNTAYMELSSLRSADTAMYYCARGDGNYALDAMDYWGQGTSVTVSS VL: DIVMTQTPPSLSVSPRETASISCRASESVDSYGNSFMHWYLQKPGQSPQLLIYLASNLESGVSDRFSGSGSGTDFTLRISRVEANDTGVYYCQQNNEDPLTFGQ
no binding				felHclb_heterochimera-13 (antibody, V domains shown, hetero-pairing; also called felHclbH636x/mHclbVL) VH: QVLLVQSGAEVRRPGASVKIFCKASGYIFITYYMHWLRQAPAQGFEWMGQIFPASGSTNYNEMFEGRLTLTADTSTDTAYMELSSLRSADTAVYYCARGDGNYALDAMDYWGHGTIVTVSS VL: DIVLTQTPASLAVSLGQRATISCRASESVDSYGNSFMHWYQQKSGQPPKLLIYLASNLESGVPARFSGSGSRTDFTLTIDPVEADDAATYYCQQNNEDPLTFGAGTK
no binding				felHclb_heterochimera-16 (antibody, V domains shown, hetero-pairing; also called felHclbH618x/mHclbVL) VH: QVLLVQSGAEVRKPGASVKIFCKASGYTFITYYMHWLRQAPEQGLEWMGQIFPASGSTNYNEMFEGRLTLTADTSTNTAYMELSSLRSADTAMYYCARGDGNYALDAMDYWGQGALVTVSS VL: DIVLTQTPASLAVSLGQRATISCRASESVDSYGNSFMHWYQQKSGQPPKLLIYLASNLESGVPARFSGSGSRTDFTLTIDPVEADDAATYYCQQNNEDPLTFGAGTK
no binding				felHclb_heterochimera-12 (antibody, V domains shown, hetero-pairing; also called felHclbH1-1/mHclbVL) VH: QVLLVQSGAEVRTPGASVKIFCKASGYIFITYYMHWVRQSPAQGLEWMGSIFPASGSTSYAQKFQGRLTLTADTSTNTAYMELSSLRSADTAMYYCARGDGNYALDAMDYWGQGTSVTVSS VL: DIVLTQTPASLAVSLGQRATISCRASESVDSYGNSFMHWYQQKSGQPPKLLIYLASNLESGVPARFSGSGSRTDFTLTIDPVEADDAATYYCQQNNEDPLTFGAGTK
